Laboratory results as given in the Human Domainome abundance scans (Beltran et al. 2025).
± gives the uncertainty stated by the source.

B1: POU domain, class 3, transcription factor 3, residues 408 to 463; numbered along this chain, P20264 (parent)
chain: KKRTSIEVSVKGALESHFLKCPKPSAQEITNLADSLQLEKEVVRVWFCNRRQKEKR

Variants of: B1
Assay: abundance fitness (aPCA) (normalised: wild type 0, dead -1); higher = more abundant; growth selection in yeast, the domain comes from the species named
Settings: Homo sapiens

Variant | abundance fitness
L36G | -0.929 ± 0.079
L36P | -1.03 ± 0.18
L36A | -0.906 ± 0.092
L36C | -0.517 ± 0.15
L36W | -0.565 ± 0.1
L36I | -0.377 ± 0.11
L36M | -0.166 ± 0.098
Q27S | -0.098 ± 0.073
Q27R | -0.055 ± 0.058
Q27C | -0.171 ± 0.1
Q27H | -0.123 ± 0.12
Q27A | -0.049 ± 0.081
C21S | 0.041 ± 0.086
C21Y | -0.383 ± 0.12
C21D | -0.094 ± 0.12
C21F | -0.407 ± 0.16
C21R | -0.501 ± 0.063
C21K | -0.408 ± 0.12
E7H | -0.016 ± 0.057
E7Y | -0.3 ± 0.06
E7W | -0.436 ± 0.21
E7S | 0.144 ± 0.052
E7P | 0.167 ± 0.051
R44S | -0.55 ± 0.35

Variant | abundance fitness
N49K | -0.276 ± 0.15
N49P | -0.881 ± 0.2
N49C | -0.202 ± 0.11
N49Q | 0.028 ± 0.13
N49V | -0.152 ± 0.1
N49A | -0.142 ± 0.094
N49T | -0.097 ± 0.12
N49E | 0.041 ± 0.13
N49W | -0.295 ± 0.088
A26W | -0.155 ± 0.083
A26M | -0.063 ± 0.1
A26S | -0.168 ± 0.08
A26L | -0.005 ± 0.074
A26G | -0.086 ± 0.06
S35H | -0.048 ± 0.16
S35W | -0.228 ± 0.12
S35A | -0.019 ± 0.079
S35G | -0.194 ± 0.077
S35T | -0.07 ± 0.098
P24F | -0.827 ± 0.22
P24V | -0.792 ± 0.093
P24L | -0.881 ± 0.099
P24E | -0.871 ± 0.17
P24K | -0.93 ± 0.23

Variant | abundance fitness
P24Q | -0.842 ± 0.2
P24S | -0.874 ± 0.13
P24C | -0.83 ± 0.19
Q52G | -0.146 ± 0.074
Q52I | -0.186 ± 0.16
Q52V | -0.112 ± 0.083
Q52R | -0.138 ± 0.069
Q52N | -0.17 ± 0.14
Q52Y | -0.257 ± 0.14
K1A | -0.075 ± 0.27
K1W | -0.15 ± 0.34
K1M | -0.333 ± 0.23
K1C | -0.104 ± 0.17
E39G | -0.257 ± 0.064
E39Y | -0.927 ± 0.15
E39C | -0.109 ± 0.079
E39W | -0.89 ± 0.12
E39A | -0.153 ± 0.069
E39H | -0.224 ± 0.13
E39I | -0.919 ± 0.17
E39P | -0.116 ± 0.1
S5G | -0.008 ± 0.064
S5Y | 0.206 ± 0.12
S5A | 0.086 ± 0.079

Variant | abundance fitness
T30I | -0.035 ± 0.099
T30N | -0.095 ± 0.099
T30S | 0.031 ± 0.071
T30K | -0.044 ± 0.1
T30G | -0.072 ± 0.062
T30M | -0.057 ± 0.095
T30F | -0.082 ± 0.12
T30Q | 0.079 ± 0.11
N31S | -0.033 ± 0.038
V43D | -0.972 ± 0.22
V43M | -0.863 ± 0.15
V43I | -0.341 ± 0.14
V43N | -0.493 ± 0.42
F47L | -0.461 ± 0.28
F47D | -0.295 ± 0.4
F47M | -0.144 ± 0.34
K11Q | -0.015 ± 0.12
K11H | -0.04 ± 0.12
K11G | -0.135 ± 0.067
K11M | -0.006 ± 0.16
K11P | -0.024 ± 0.12
R3Q | -0.217 ± 0.13
R3W | -0.155 ± 0.088
R3L | 0.055 ± 0.087

Variant | abundance fitness
R3N | -0.048 ± 0.2
R3A | -0.15 ± 0.075
K55E | 0.024 ± 0.11
K55C | -0.14 ± 0.13
K55V | -0.031 ± 0.081
S16H | -0.287 ± 0.17
S16L | -0.106 ± 0.084
S16A | -0.026 ± 0.089
S16D | 0.026 ± 0.11
S16F | -0.232 ± 0.099
K23L | -0.057 ± 0.075
K23V | -0.082 ± 0.066
K23A | -0.001 ± 0.077
K23M | -0.031 ± 0.1
K23T | -0.052 ± 0.1
E41S | -0.243 ± 0.071
E41V | -0.884 ± 0.09
E41T | -0.308 ± 0.098
E41H | -0.196 ± 0.12
E41W | -0.3 ± 0.089
R56G | -0.068 ± 0.086
R56A | -0.046 ± 0.12
R56W | -0.272 ± 0.13
V8F | 0.04 ± 0.27

Variant | abundance fitness
V8L | 0.1 ± 0.08
V8N | 0.039 ± 0.17
V8K | 0.068 ± 0.11
V8A | -0.032 ± 0.097
V8P | 0.195 ± 0.12
V8Y | -0.369 ± 0.21
V8R | 0.001 ± 0.062
V8E | 0.088 ± 0.096
V8M | 0.098 ± 0.12
V8S | 0.218 ± 0.092
E15R | -1.03 ± 0.24
E15N | -1.02 ± 0.41
E15M | -0.713 ± 0.4
E15K | -0.582 ± 0.3
E15G | -1.02 ± 0.23
K40M | -0.336 ± 0.16
K40D | -0.028 ± 0.16
K40W | -0.073 ± 0.089
K40N | -0.118 ± 0.18
K40T | -0.076 ± 0.12
K40I | 0.048 ± 0.16
L14V | -0.899 ± 0.1
L14S | -0.87 ± 0.097
L14W | -1.01 ± 0.12

Variant | abundance fitness
L14G | -0.958 ± 0.083
L14A | -0.8 ± 0.1
L14Q | -0.942 ± 0.17
G12E | 0.111 ± 0.091
G12N | 0.11 ± 0.15
G12L | 0.104 ± 0.071
G12R | 0.007 ± 0.061
G12Q | -0.094 ± 0.14
G12V | 0.211 ± 0.075
T4W | -0.572 ± 0.11
T4G | -0.077 ± 0.066
T4H | -0.405 ± 0.23
T4C | -0.205 ± 0.11
T4L | -0.093 ± 0.074
T4V | -0.095 ± 0.073
T4K | -0.142 ± 0.12
T4R | -0.26 ± 0.067
I6K | -0.051 ± 0.12
I6R | -0.108 ± 0.068
I6W | -0.124 ± 0.088
V10L | -0.042 ± 0.093
V10D | 0.176 ± 0.15
V10K | -0.032 ± 0.13
